Measured values as given in patent publication US20210188980A1 (SHANGHAI EPIMAB BIOTHERAPEUTICS, published 2021).
Where a chain is given by its changes, count along the chain named.

Experiments:
[1] = biological target: T1, recombinant human LAG-3-his protein (Novoprotein) (human, UniProt P18627 23-450); test: BLI Octet, Ab on AHC sensor, huLAG-3-his; test group 2
T1 construct: Bought; also called huLAG-3; not shown: His tag
T1 sequence (looked up): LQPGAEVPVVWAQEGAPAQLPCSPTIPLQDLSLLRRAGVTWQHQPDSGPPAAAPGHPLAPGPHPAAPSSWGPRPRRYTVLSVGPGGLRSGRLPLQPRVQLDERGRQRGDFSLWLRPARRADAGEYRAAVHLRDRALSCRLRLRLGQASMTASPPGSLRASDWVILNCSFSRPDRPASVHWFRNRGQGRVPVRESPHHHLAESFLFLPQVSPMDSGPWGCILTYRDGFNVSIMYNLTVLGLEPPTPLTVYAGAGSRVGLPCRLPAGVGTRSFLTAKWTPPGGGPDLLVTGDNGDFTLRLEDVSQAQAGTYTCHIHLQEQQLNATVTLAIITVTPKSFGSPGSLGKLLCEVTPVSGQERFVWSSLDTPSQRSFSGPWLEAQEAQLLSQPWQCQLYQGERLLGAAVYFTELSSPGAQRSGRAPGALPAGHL
Experimental: (§1) All 18 humanized antibodies (Table 34) and a chimeric antibody having the parental murine VH and VL domains (mAb747c) were ranked by dissociation rate constant (koff). Briefly, antibodies were characterized for affinities and binding kinetics by Octet®RED96 biolayer interferometry (Pall ForteBio LLC). Antibodies were captured by Anti-hIgG Fc Capture (AHC) Biosensors (Pall) at a concentration of 100 nM for 30 seconds. Sensors were then dipped into running buffer (1× pH7.2 PBS, 0.05% Tween 20, 0.1% BSA) for 60 seconds to check baseline. Binding was measured by dipping sensors into a single concentration of recombinant human LAG-3-his protein (Novoprotein). Dissociation was followed by dipping sensors into running buffer for 1200 seconds. The association and dissociation curves were fitted to a 1:1 Langmuir binding model using FortéBio Data Analysis software (Pall). In each test group, the off-rates of antibodies were able to be compared with that of mAb747c. The off-rate ratios were calculated by the off-rate of antibody to that of mAb747c of its group and were compared all together. The lower the ratio was, the higher was the affinity of the antibody.

[2] = biological target: T1, recombinant human LAG-3-his protein …; test: BLI Octet, Ab on AHC sensor, huLAG-3-his; test group 1
Experimental: as §1

human PD-1-His protein = biological target: T2, human PD-1-His protein (human, UniProt Q15116 25-167, limits assumed); test: SPR Biacore
T2 construct: also called huPD-1; not shown: His tag

[3] = biological target: T3, human PD-1 expressed on cells (human, UniProt Q15116 25-288); test: cell RBA FACS; competitor PD-L1/Fc
T3 construct: whole, on cells; also called CHO-K1/huPD-1; CHO-K1-hPD-1 cells

[4] = biological target: T3, human PD-1 expressed on cells; test: cell RBA FACS; competitor PD-L2/Fc
[5] = biological target: T4, human PD-1 ECD/Fc fusion protein (human); test: BLI Octet, immobilized huPD-1-Fc, Ab analyte
T4 construct: also called huPD-1/Fc; HuPD-1 ECD/Fc
Excerpt: All 21 humanized antibodies and the chimeric antibody (mAb719c) were characterized by binding ELISA and affinity determination using Octet® RED96 biolayer interferometry system (Pall FortéBio LLG), using a biosensor having immobilized human PD-Fc as the antibody target. Rate constants were derived by making kinetic binding measurements at five different concentrations of antibody.

[6] = biological target: T1, recombinant human LAG-3-his protein …; test: BLI Octet, Ab on AHC sensor, huLAG-3-his; test group 1; remark: listed apart in the source
Experimental: as §1, with “9” for “18”, “25)” for “34)”, “Octet RED96” for “Octet®RED96”, “FortéBio” for “ForteBio”, “Anti-HIgG” for “Anti-hIgG”, “(Pall).” for “(Pall). In each test group, the off-rates of antibodies were able to be compared with that of mAb747c. The off-rate ratios were calculated by the off-rate of antibody to that of mAb747c of its group and were compared all together. The lower the ratio was, the higher was the affinity of the antibody.”
The seven Fab clones were converted to full IgG proteins. Briefly, the VH and VL genes were produced synthetically and then cloned into vectors containing coding sequences for the human IgG1 and human kappa constant domains, respectively. The heavy chain and cognate light chain plasmids were co-transfected into HEK 293E cells, individually. After approximately six days of post-transfection cell culture, the supernatants were harvested and subjected to Protein A affinity chromatography. The affinity of purified antibodies was ranked by Octet® RED96 biolayer interferometry (see, Example 9.1, supra).

T4 sequence (chain, as listed by the source limits assumed): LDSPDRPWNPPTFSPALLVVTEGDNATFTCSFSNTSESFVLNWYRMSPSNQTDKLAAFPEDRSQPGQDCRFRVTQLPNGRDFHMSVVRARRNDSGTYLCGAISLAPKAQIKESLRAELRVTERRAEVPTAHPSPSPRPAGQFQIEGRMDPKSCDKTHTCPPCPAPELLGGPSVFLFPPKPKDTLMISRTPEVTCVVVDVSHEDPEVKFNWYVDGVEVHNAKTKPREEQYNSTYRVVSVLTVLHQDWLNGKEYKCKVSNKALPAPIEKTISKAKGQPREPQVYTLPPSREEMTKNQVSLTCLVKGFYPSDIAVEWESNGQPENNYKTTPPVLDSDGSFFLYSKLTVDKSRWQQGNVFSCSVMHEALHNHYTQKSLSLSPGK
T2 sequence (Q15116 25-167 limits assumed): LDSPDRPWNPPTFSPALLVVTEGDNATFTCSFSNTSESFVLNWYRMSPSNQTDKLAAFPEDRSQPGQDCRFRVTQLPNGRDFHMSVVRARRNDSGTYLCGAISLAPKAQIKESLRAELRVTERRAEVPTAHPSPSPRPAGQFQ
T3 sequence (Q15116 25-288): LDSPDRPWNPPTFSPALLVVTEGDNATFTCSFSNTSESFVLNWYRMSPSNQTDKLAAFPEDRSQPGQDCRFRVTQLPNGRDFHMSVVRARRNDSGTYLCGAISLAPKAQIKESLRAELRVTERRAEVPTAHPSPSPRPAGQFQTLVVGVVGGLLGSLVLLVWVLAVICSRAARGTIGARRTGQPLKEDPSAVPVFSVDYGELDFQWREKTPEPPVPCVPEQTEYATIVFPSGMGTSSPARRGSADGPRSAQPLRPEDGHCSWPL

B1: HumAb747-54 (antibody, human IgG1, V domains shown)
VH: EVQLVQSGAEVKKPGATVKLSCTASDFNIKDDYMHWVKQAPGKGLEWIGWIVPENGNTEYASKFQGRATITADTSTNTAYLELSSLRSEDTAVYYCTVYGDYWGQGTTVTVSS
VL: DIQMTQSPSSLSASVGDRVTITCRASQEISGYLSWLQQKPGGAIKRLIYAASTLDSGVPSRFSGSRSGSDYTLTISSLQPEDFADYYCLQYASYPLTFGQGTKLELK
notes: humanized mAb747; human IgG1/kappa constant domains
For B1, the koff [1] was 0.00423 s⁻¹ and the “off-rate ratio to that of mAb747c” value [1] was 314%.

B2: HumAb747-43 (antibody, human IgG1, V domains shown)
VH: B1 VH with L20I, T23K, A24V, K38Q, A68V, N77D
VL: B1 VL with G42K, R46S, S69T, Y71F, D85T, L106I
notes: as for B1
With B2 the koff [2] was 0.00925 s⁻¹ and the “off-rate ratio to that of mAb747c” value [2] was 682%.

B3: HumAb747-44 (antibody, human IgG1, V domains shown)
VH: B1 VH with T23K, K38Q, A68V, N77D
VL: B1 VL with G42K, R46S, S69T, Y71F, D85T, L106I
notes: as for B1
For B3, the koff [2] was 0.011 s⁻¹ and the “off-rate ratio to that of mAb747c” value [2] was 809%.

B4: HumAb747-45 (antibody, human IgG1, V domains shown)
VH: B1 VH with K38Q, A68V, N77D
VL: B1 VL with G42K, R46S, S69T, Y71F, D85T, L106I
notes: as for B1
With B4 the koff [2] was 0.0108 s⁻¹ and the “off-rate ratio to that of mAb747c” value [2] was 797%.

B5: HumAb747-46 (antibody, human IgG1, V domains shown)
VH: B1 VH
VL: B1 VL with G42K, R46S, S69T, Y71F, D85T, L106I
notes: as for B1
In the case of B5, the koff [2] is reported as 0.0109 s⁻¹ and the “off-rate ratio to that of mAb747c” value [2] is reported as 801%.

B6: HumAb747-47 (antibody, human IgG1, V domains shown)
VH: B1 VH with L20I, T23K, A24V, K38Q, A68V, N77D
VL: B1 VL with G42K, S69T, Y71F, D85T, L106I
notes: as for B1
With B6 the koff [2] was 0.0144 s⁻¹ and the “off-rate ratio to that of mAb747c” value [2] was 1060%.

B7: HumAb747-48 (antibody, human IgG1, V domains shown)
VH: B1 VH with T23K, K38Q, A68V, N77D
VL: B1 VL with G42K, S69T, Y71F, D85T, L106I
notes: as for B1
For B7, the koff [2] was 0.00803 s⁻¹ and the “off-rate ratio to that of mAb747c” value [2] was 592%.

B8: HumAb747-49 (antibody, human IgG1, V domains shown)
VH: B1 VH with K38Q, A68V, N77D
VL: B1 VL with G42K, S69T, Y71F, D85T, L106I
notes: as for B1
For B8, the koff [1] was 0.00773 s⁻¹ and the “off-rate ratio to that of mAb747c” value [1] was 575%.

B9: HumAb747-50 (antibody, human IgG1, V domains shown)
VH: B1 VH
VL: B1 VL with G42K, S69T, Y71F, D85T, L106I
notes: as for B1
In the case of B9, the koff [1] is reported as 0.00719 s⁻¹ and the “off-rate ratio to that of mAb747c” value [1] is reported as 534%.

B10: HumAb747-51 (antibody, human IgG1, V domains shown)
VH: B1 VH with L20I, T23K, A24V, K38Q, A68V, N77D
VL: B1 VL
notes: as for B1
For B10, the koff [1] was 0.0119 s⁻¹ and the “off-rate ratio to that of mAb747c” value [1] was 888%.

B11: HumAb747-52 (antibody, human IgG1, V domains shown)
VH: B1 VH with T23K, K38Q, A68V, N77D
VL: B1 VL
notes: as for B1
With B11 the koff [1] was 0.00436 s⁻¹ and the “off-rate ratio to that of mAb747c” value [1] was 324%.

B12: HumAb747-53 (antibody, human IgG1, V domains shown)
VH: B1 VH with K38Q, A68V, N77D
VL: B1 VL
notes: as for B1
B12 was tested, and the koff [1] was 0.0043 s⁻¹ and the “off-rate ratio to that of mAb747c” value [1] was 319%.

B13: mAb713c (antibody, V domains shown)
VH: EVKLVESGGGLVKPGGSLELSCAASGFTSSDYGMHWVRQAPEKGLEWVAYISSGSYTIYYADTVKGRFTISRDNAKNTLFLQMTSLRSEDTAMYYCAKRGGSSHVNVMDYWGQGTSVTVSS
VL: DIQMTQSSSYLSVSLGGRVTITCKASDHINNWLAWYQQKPGNAPRLLISGATSLETGVPSRFSGSGSGKDYTLSITSLQTEDVATYYCQQYWSPPYTFGGGTKLEIK
notes: also called mAb73c
In the case of B13, the Kd (human PD-1-His protein) is reported as 1.3 nM, the koff (human PD-1-His protein) is reported as 0.000284 s⁻¹ and the kon (human PD-1-His protein) is reported as 218000 M⁻¹ s⁻¹. It also gave an IC50 [3] of 0.91 nM and an IC50 [4] of 2.2 nM.

B14: HumAb719-11 (antibody, human IgG1, kappa, L234A L235A, V domains shown)
VH: EVQLLESGGGLVQPGGSLRLSCAASGFSFSSHLMSWVRQAPGKGLEWVAAISGGGADTYYPDSVKGRFTISRDNSKNTLYLQMNSLRAEDTAVYYCTRQILAFDSWGQGTTVTVSS
VL: DIQMNQSPSSLSASVGDRVTITCHASQNIYVWLNWYQQKPGKAPKLLIYKASNLHTGVPSRFSGSGSGTDFTFTISSLQPEDIATYYCQQGQSYPWTFGGGTKVEIKR
notes: humanized mAb719
Work on B14 yielded a Kd [5] of 3.82 nM, a koff [5] of 0.000227 s⁻¹ and a kon [5] of 59400 M⁻¹ s⁻¹.

B15: HumAb719-8 (antibody, human IgG1, kappa, L234A L235A, V domains shown)
VH: B14 VH with S28T, A49S, T97A, R98K
VL: B14 VL
notes: humanized mAb719
B15 was tested, and the Kd [5] was 0.46 nM, the koff [5] was 4.9e-05 s⁻¹ and the kon [5] was 107000 M⁻¹ s⁻¹.

B16: HumAb719-12 (antibody, human IgG1, kappa, L234A L235A, V domains shown)
VH: B14 VH with G44R
VL: B14 VL
notes: humanized mAb719
In the case of B16, the Kd [5] is reported as 0.844 nM, the koff [5] is reported as 5.81e-05 s⁻¹ and the kon [5] is reported as 68800 M⁻¹ s⁻¹.

B17: HumAb719-21 (antibody, human IgG1, kappa, L234A L235A, V domains shown)
VH: B14 VH with G44R, D62A, S105A
VL: B14 VL with A43I
notes: humanized mAb719; also called HuniAb719-21
For B17, the Kd [5] was 0.601 nM, the koff [5] was 6.26e-05 s⁻¹ and the kon [5] was 104000 M⁻¹ s⁻¹.

B18: mAb719c (antibody, V domains shown)
VH: EVKLVESGGGLVKPGGSLKLSCTASGFSFSSHLMSWVRQTPEKRLEWVAAISGGGADTYYPDSVKGRFTISRDNAKNTLYLQMRSLRSEDTALYYCTRQILAFDSWGQGTTLTVSS
VL: DIQMNQSPSSLSVSLGDTITITCHASQNIYVWLNWYQQKPGNIPKLLIYKASNLHTGVPSRFSGGGSGTGFTLTISSLQPEDIATYYCQQGQSYPWTFGGGTKLEIK
Work on B18 yielded a Kd [5] of less than 0.103 nM, a koff [5] of less than 1e-05 s⁻¹ and a kon [5] of 97400 M⁻¹ s⁻¹.

B19: B2-53-IgG (antibody, V domains shown)
VH: EVQLVQSGAEVKKPGASVKVSCKASGFNIKDDYMHWVRQAPGQGLEWIGWIVPENGNTVYASKFQGRVTITADTSINTAYMELSRLRSDDTAVYYCTVYGDYWGQGTTVTVSS
VL: B1 VL with T22N, G41E, A43T, T53A, D85T, Q100G, L104V, L106I
notes: human IgG1/kappa constant domains; also called B82-53
With B19 the koff [6] was 0.0018 s⁻¹ and the “off-rate ratio to that of mAb747c” value [6] was 120%.

B20: B3-21-IgG (antibody, V domains shown)
VH: B19 VH with G26D, V59E, Y102V
VL: B1 VL with T22N, S26M, G41E, A43T, D85T, S93Y, Q100G, L104V, L106I
notes: human IgG1/kappa constant domains
In the case of B20, the koff [6] is reported as 0.00198 s⁻¹ and the “off-rate ratio to that of mAb747c” value [6] is reported as 132%.

B21: B3-43-IgG (antibody, V domains shown)
VH: B19 VH with R38C, V59E
VL: B1 VL with T22N, G41E, A43T, T53H, D85T, Q100G, L104V, L106I
notes: as for B20
B21 was tested, and the koff [6] was 0.00588 s⁻¹ and the “off-rate ratio to that of mAb747c” value [6] was 392%.

B22: B3-46-IgG (antibody, V domains shown)
VH: B19 VH with N57L, V59E
VL: B1 VL with T22N, G41E, A43T, A51T, D85T, Q100G, L104V, L106I
notes: as for B20
B22 was tested, and the koff [6] was 0.00248 s⁻¹ and the “off-rate ratio to that of mAb747c” value [6] was 165%.

B23: B3-48-IgG (antibody, V domains shown)
VH: B19 VH with G26D, N28S, N57K, V59E
VL: B1 VL with T22N, G41E, A43T, S52M, D85T, Q100G, L104V, L106I
notes: as for B20
In the case of B23, the koff [6] is reported as 0.00285 s⁻¹ and the “off-rate ratio to that of mAb747c” value [6] is reported as 190%.
